As a reminder, the Km is the concentration of substrate that gives half-maximal velocity. What is called Vmax is the top rate of the reaction or transport when substrate is in excess.

Experimental findings from publication PMC11754754, “Structure and mechanism of biosynthesis of Streptococcus mutans cell wall polysaccharide” (Nature Communications, 2025) are described below.

The test system of data set [1] is O=c1ccn([C@@H]2O[C@H](CO[P@@](=O)(O)O[P@@](=O)(O)O[C@H]3O[C@H](CO)[C@@H](O)[C@H](O)[C@H]3O)[C@@H](O)[C@H]2O)c(=O)[nH]1. Description: cells, lysate or membranes. The note with it: labelled compound (UDP-[3H]Glc), co-substrate Und-P in CHAPS, 20 mM MgCl2, pH 7.4, 37 °C.
Source text: (§2) radiometric [3H]Glc-lipid formation, E. coli membrane fraction on SccP
In data set [2] the test system is CC(C)=CCC/C(C)=C/CC/C(C)=C/CC/C(C)=C\CC/C(C)=C\CC/C(C)=C\CC/C(C)=C\CC/C(C)=C\CC/C(C)=C\CC/C(C)=C\CC/C(C)=C\COP(=O)(O)O. Briefly: cells, lysate or membranes. The note with it: co-substrate UDP-[3H]Glc, Und-P dispersed in CHAPS, 20 mM MgCl2, pH 7.4, 37 °C.
Source text: as §2
Data set [3] concerns O=c1ccn([C@@H]2O[C@H](CO[P@@](=O)(O)O[P@@](=O)(O)O[C@H]3O[C@H](CO)[C@@H](O)[C@H](O)[C@H]3O)[C@@H](O)[C@H]2O)c(=O)[nH]1. Briefly: radiometric [3H]Glc-lipid formation, E. coli membrane fraction. The data set is classed as biochemical, Streptococcus mutans. The note with it: labelled compound (UDP-[3H]Glc), co-substrate Und-P in CHAPS, 20 mM MgCl2, pH 7.4, 37 °C. The source says:
(§1) radiometric [3H]Glc-lipid formation, E. coli membrane fraction on SccN

The subject of data set [4] is CC(C)=CCC/C(C)=C/CC/C(C)=C/CC/C(C)=C\CC/C(C)=C\CC/C(C)=C\CC/C(C)=C\CC/C(C)=C\CC/C(C)=C\CC/C(C)=C\CC/C(C)=C\COP(=O)(O)O. The description is as above. The note with it: co-substrate UDP-[3H]Glc, Und-P dispersed in CHAPS, 20 mM MgCl2, pH 7.4, 37 °C. The data set is classed as biochemical, Streptococcus mutans.
Source text: as §1

Take SccP (Streptococcus mutans UA159): in data set [1], the Km is 2.50 µM and the Vmax was found to be 0.93 µmol/min/mg. In data set [2], the Km was found to be 2.56 µM and the Vmax is 0.96 µmol/min/mg.

Consider SccN (Streptococcus mutans UA159), for which, in data set [3], the Km is 1.61 µM and the Vmax was 3.16 µmol/min/mg. Moreover, in data set [4], the Michaelis constant (Km) amounted to 5.85 µM and the Vmax was 5.42 µmol/min/mg.
